Laboratory results from paper PMC10728069.

Assays:
[1] = biological target: His-MoSPAB1ΔSP (Magnaporthe oryzae) (UniProt G4N0C3); assay: pull-down; details: buffer not stated
[2] = system: GST-MYBS1 (rice); assay: pull-down; details: buffer not stated

Bsr-d1 promoter 1689 bp
binding signal (fold of bound MoSPAB1ΔSP) [1]: 1.11
binding signal (fold of bound GST-MYBS1) [2]: 0.65
